{"source": "patent US20220306733A1", "about": "(ITEOS BELGUIM, published 2022)", "binders": {"B1": {"name": "anti-TIGIT antibody clone 32959 (antibody, human IgG1, V domains shown)", "VH": "QVQLVQSGAEVKKPGSSVKVSCKASGGTFSSYLISWVRQAPGQGLEWMGGIYPIFATANYAQKFQGRVTITADESTSTAYMELSSLRSEDTAVYYCAREAQSYRVPFDIWGQGTMVTVSS", "VL": "EIVMTQSPATLSVSPGERATLSCRASQSVSSNLAWYQQKPGQAPRLLIYGASTRATGIPARFSGSGSGTEFTLTISSLQSEDFAVYYCQQYAIWPPFTFGGGTKVEIK", "modifications": "AF647 dye coupled to the antibody in Examples 24 and 36; the site is not stated and the letters do not carry it.", "notes": "human IgG1 from HEK cells"}}, "target": "T1, human TIGIT on cells (Jurkat-hTIGIT, human primary T cells) (human, UniProt Q495A1 22-244)", "T1 construct": "whole, on cells; The cell type is named in each row's assay; also called membrane expressed human TIGIT", "T1 sequence (looked up)": "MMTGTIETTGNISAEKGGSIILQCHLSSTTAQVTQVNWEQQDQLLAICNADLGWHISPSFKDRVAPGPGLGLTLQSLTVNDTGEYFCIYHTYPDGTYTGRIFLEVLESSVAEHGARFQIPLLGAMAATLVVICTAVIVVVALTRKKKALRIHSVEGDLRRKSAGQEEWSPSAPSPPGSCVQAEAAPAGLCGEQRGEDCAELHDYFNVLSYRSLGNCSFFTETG", "assay": "flow cytometry on Jurkat-hTIGIT, no 31282", "data": [{"binder": "B1", "values": [{"measurement": "Cell binding Jurkat Human TIGIT FON (Fold Over Negative)", "result": 588, "unit": "fold over negative"}]}]}
